We go through three molecules from US20110165161A1, “ANTI-EPCAM ANTIBODIES THAT INDUCE APOPTOSIS OF CANCER CELLS AND METHODS USING SAME” (priority 2009, published 2011).

Where a chain is given by its changes, count along the chain named.

The subject of one experiment is CHO parental cells. The experiment in a line: FACS binding of anti-EpCAM antibodies to CHO parental cells. Further details: species or system Chinese hamster. To be noted: antibody 0.1 μg/ml; HPS at 300x dilution. The protocol:
1×10^5 CHO/EpCAM or CHO parental cells were seeded in each well of a v-bottomed 96-well plate and incubated with purified anti-EpCAM antibodies or mouse IgG control antibody 9E10 at concentration of 0.1 μg/ml. A 300× dilution of human cell hyper-immune serum (HPS 300×) was used as binding positive control for both cell lines here. After 1 hr incubation at 4° C., cells were washed twice with 200 μl FACS buffer (1×PBS containing 1% FBS), stained with 100 μl of 1 μg/ml goat-anti-mouse IgG-PE (Southern Biotech, Cat. No. 1032-09) in FACS buffer and then incubated at 4° C. for 30 min. Cells were washed thrice with FACS buffer and analyzed by flow cytometry (BD LSR, BD Life Sciences).

For experiment [1], the system named is Ovarian cancer NIH:OVCAR-3 cells. Kind of experiment: Antibody cytotoxicity assay (Annexin V + PI), NIH:OVCAR-3. It counts as cell-based. To be noted: 1, 3 and 10 μg/ml, overnight. The protocol: (§1) After a 17-20 hr incubation at 37° C., cells were stained with 0.3 μl of FITC-conjugated Annexin V (Strong Biotech Corp. Cat. No. AVK250) in 50 μl Annexin V binding buffer (Strong Biotech Corp. Cat. No. AVK250) at RT for 20 min. After wash, the cells were then stained with 0.3 μl of propidium iodide in 200 μl Annexin V binding buffer. Annexin V and Propidium Iodide were used as a joint indicator for cell death. The data were acquired with BD FACSCalibur based on an acquisition of 3,000-5,000 cells and analyzed with the Cell Quest software. The combined percentages of the Annexin V+/PI+, Annexin V+/PI− and Annexin V−/PI+populations were considered as dead cells.

The subject of experiment [2] is Breast cancer T-47D cells. The experiment in a line: Antibody cytotoxicity assay (Annexin V + PI), T-47D. It counts as cell-based. To be noted: 1, 3 and 10 μg/ml, overnight. Here is the method: as §1
Experiment [3] concerns Lung cancer NCI-H520 cells. Kind of experiment: Antibody cytotoxicity assay (Annexin V + PI), NCI-H520. Conditions: 1, 3 and 10 μg/ml, overnight. It counts as cell-based. The protocol: as §1
The test system of experiment [4] is Colorectal cancer DLD-1 cells. Kind of experiment: Antibody cytotoxicity assay (Annexin V + PI), DLD-1. It is filed as cell-based. To be noted: 1, 3 and 10 μg/ml, overnight. The protocol:
as §1

In experiment [5] the test system is Prostate cancer LNCaP cells. Kind of experiment: Antibody cytotoxicity assay (Annexin V + PI), LNCaP. It is filed as cell-based. To be noted: 1, 3 and 10 μg/ml, overnight. Here is the method:
as §1

In experiment [6] the test system is NCI-H358 lung cancer cells. Kind of experiment: Cell death in NCI-H358 lung cancer cells (Annexin V + PI). It is filed as cell-based, human. To be noted: mean of 5 experiments; mAb 10 μg/ml; 17 hr. Here is the method: 5×10^4 NCI-H358 cells were seeded to each well of a 96-well plate, and then 10 μg/ml of anti-EpCAM or control (9E10) mAbs diluted in the medium was added into the cells. After a 17-hr incubation at 37° C., the cells were stained with 0.3 μl of FITC-conjugated Annexin V (Strong Biotech Corp. Cat. No. AVK250) in 50 μl Annexin V binding buffer (Strong Biotech Corp. Cat. No. AVK250) at RT for 20 min. After wash, the cells were then stained with 0.3 μl of propidium iodide in 200 μl Annexin V binding buffer. Annexin V and Propidium Iodide were used as a joint indicator for measuring cell death. The data were acquired with BD FACSCalibur based on an acquisition of 3,000-5,000 cells and analyzed with the Cell Quest software. The combined percentages of the Annexin V+/PI+, Annexin V+/PI− and Annexin V−/PI+populations were considered as dead cells.

Experiment [7] has as its system Gastric cancer NCI-N87 cells. Kind of experiment: Antibody cytotoxicity assay (Annexin V + PI), NCI-N87. It is filed as cell-based. To be noted: 1, 3 and 10 μg/ml, overnight. The protocol: as §1
Experiment [8] deals with Pharynx cancer FaDu cells. Kind of experiment: Antibody cytotoxicity assay (Annexin V + PI), FaDu. It counts as cell-based. To be noted: 1, 3 and 10 μg/ml, overnight. The protocol:
as §1

B1: 6D11: murine anti-human EpCAM monoclonal antibody (IgG1, K), hybridoma m338-6D11.8; VH SEQ ID NO:23, VL SEQ ID NO:25 (antibody, listed as Mus musculus, V domains shown)
VH: EVQLVESGGDLVKPGGSLKLSCAASGFAFDSYGMSWIRQTPGTRLEWVATISSGGYYTYYEDNVKGRFIISRDNAKNTLDLQMSGLKSEDAATYYCARRGNYDVDYYAMDYWGQGTSVIVSS
VL: DVVLTQIPLSLPVSLGDQASISCRSSQSLEHSNGNTYLHWYLQKPGQSPKLLIYKVSNRFSGVPDRFSGSGSGTDFTLKISRVEAEDLGVYFCSQSTHVPPWTFGGGTKLEFKR
B1: in the experiment with CHO parental cells, the “Binding (FACS, Mean fluorescence intensity (MFI)) CHO” value (“Binding” below) is on record as 5. Moreover, the “Induction of cell death (in words)” value in experiment [1], in [2], in experiment [3], in experiment [4], in experiment [5] and in experiment [7] was “substantial cell death” each time. The “Induction of cell death (in words)” value in [8] is “substantial cell death”. The “% of Annexin V + PI staining (untreated background subtracted), Mean ± SEM” value (shortened to “% of Annexin V + PI staining … Mean ± SEM”) in [6] was 42.4 ± 1.0%.

B2: 4D2: murine anti-human EpCAM monoclonal antibody (IgG1, K), hybridoma m338-4D2.20; VH SEQ ID NO:19, VL SEQ ID NO:21 (antibody, listed as Mus musculus, V domains shown)
VH: B1 VH with I37V, T43K, E61Q, N63S, I69T, I70T, G85S, A91S, T93I, I119T
VL: B1 VL with L4M, I7T, E30V, K79R, F112I
In the case of B2, the “Binding” value in the experiment on CHO parental cells was found to be 5. In addition, the “Induction of cell death (in words)” value in experiment [1], in experiment [2], in experiment [3], in experiment [4], in experiment [5] and in experiment [7] was “substantial cell death” each time. Also, in [8], the “Induction of cell death (in words)” value was “substantial cell death”. For the same molecule, the “% of Annexin V + PI staining … Mean ± SEM” value in experiment [6] turned out to be 43.6 ± 0.9%.

B3: 2D11: murine anti-human EpCAM monoclonal antibody (IgG1, K), hybridoma m322-2D11.19; VH SEQ ID NO:15, VL SEQ ID NO:17 (antibody, listed as Mus musculus, V domains shown)
VH: QIQLVQSGPELKKPGETVKISCKASGYTFTNYGMNWVKQAPGKGLKWMGWINTNTGEATYVEEFKGRVVFSLETSASTAYLQINNLKNEDTATYFCARIGYVWYFDVWGAGTTVTVSS
VL: DIVMSQSPSSLAVSAGEKVTMSCKSSQSLFSSRTRKNYLAWYQQKPGQSPKLLIYWASTRESGVPDRFTGSGSGTDFTLTINSVQAEDLAVYYCKHSNNLFTFGSGTKLEIKR
With B3, the “Binding” value with CHO parental cells is 6. The “Induction of cell death (in words)” value in [1], in experiment [2], in [3], in [4], in experiment [5] and in [7] was “substantial cell death” each time. Also, in [8], the “Induction of cell death (in words)” value is listed as “substantial cell death”. Besides, in [6], the “% of Annexin V + PI staining … Mean ± SEM” value is recorded as 39.4 ± 3.0%.
